Source: patent publication US20200131227A1, “POLYPEPTIDE WITH TUMOUR BINDING ACTIVITY” (RUPRECHT-KARLS-UNIVERSITÄT HEIDELBERG, priority 2017, published 2020)
Where a SMILES comes first, the peptide text is derived from it. Bridges are numbered along the chain shown (N, C = ends). The star is where a group is joined. DOTA = O=C(O)CN1CCN(CC(=O)O)CCN(CC(=O)*)CCN(CC(=O)O)CC1

Assays:
[1] = system: carcinoma cell lines; experiment: In vitro binding of radiolabeled peptides to several carcinoma cell lines; format: cell-based, human
Outline: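 Cells seeded 48 h were incubated with ^125I-labeled peptide in serum-free medium for 10 or 60 min, alone or with unlabeled peptide (10^−4 to 10^−11 M); HNO97 kinetics, efflux and internalization (37° C and 4° C, acid strip) used ^177Lu-DOTA-SFITGv6. Gamma counting gave % applied dose per 10^6 cells.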

[2] = Biodistribution, HNO97 xenografts; conditions: Balb/c nude, mouse, iv, 1 MBq, total radioactivity; for tissue to tissue ratio at 0.5 h / tissue to tissue ratio at 1 h / tissue to tissue ratio at 2 h / tissue to tissue ratio at 4 h / tissue to tissue ratio at 6 h: HNO97 xenografts; for tissue to tissue ratio at 0.5 h: 30 min
Description: All experiments were conducted in compliance with the German animal protection laws. Eight week old Balb c/c nude mice (Charles River Laboratories) were inoculated subcutaneously at the right shoulder with 5×10^6 HNO97 cells in BD MatriGel™ (BD Bioscience). Xenografts were grown to a tumor diameter of 10-15 mm. For small animal-PET imaging mice were anesthetized using isoflurane inhalation and injected via tail-vein with 50 MBq (2 nmol) of the ^68Ga-labeled DOTA-SFITGv6 peptide (see above) solution in 100 μL PBS. Images were recorded on an Inveon small-animal PET scanner (Siemens) using a 60 min emission scan in list mode and a 10 min transmission scan. Images were taken in 3-dimensional (3D) mode and reconstructed iteratively with a fully 3D algorithm from a 256×256 matrix for viewing transaxial, coronal, and sagittal slices of 0.9 mm thickness. Pixel size was 0.38×0.38×0.79 mm3 and transaxial resolution obtained was 0.9 mm. For blocking experiments 100 μL of a 1 mM aqueous solution of SFITGv6 was pre-administered intraperitoneally 30 min before injection of the radiolabeled peptide. Biodistribution studies were performed after administration of 100 μL of a 20 nM ^177Lu-DOTA-SFITGv6 solution (1 MBq) as an intravenous bolus injection into the tail vein of the mice. After different time points (30 min to 6 hours) three animals, respectively, were sacrificed. Peripheral blood, heart, lung, spleen, liver, kidneys, muscle, brain, intestine, and injection site (tail, after intravenous injection only) were collected and weighted. Tissue-associated radioactivity was measured in a gamma counter (Berthold LB951G) and expressed as percentage of the injected dose per gram tissue (% ID/g).
All animal experiments were conducted in compliance with the German animal protection laws. For in vivo small animal PET imaging and organ distribution studies eight-week old Balb/c nude mice (Charles River Laboratories) were inoculated subcutaneously at the right shoulder with a total of 5×10^6 tumor cells in MatriGel (BD Bioscience). Xenografts were grown until a tumor diameter of 10-15 mm was reached.
3-dimensional (3D) PET images of whole mice were captured by the Siemens Inveon PET scanner as described in Example 1. To assess the biodistribution 100 μL of a 20 nM solution (1 MBq) of ^177Lu-DOTA-SFLAP3 and ^177Lu-DOTA-SFITGv6 were administered as an intravenous bolus injection into the tail vein of mice. For each time point (30 min to 6 hours) we sacrificed a total of three animals, and subsequently collected peripheral blood, heart, lung, spleen, liver, kidneys, muscle, brain, and intestine. Tissues were weighed and respective radioactivity was measured by a gamma counter (LB951G, Berthold Technologies). Values were expressed as percentage of the injected dose radioactivity (MBq) per gram tissue (% ID/g).

[3] = in vivo, uptake in the kidneys, hardly any clearance
[4] = in vivo, Tumor-to-Intestine ratio

CSCC[C@@H]1NC(=O)[C@H](CC(C)C)NC(=O)[C@H](CC(=O)O)NC(=O)CNC(=O)[C@H](CCCNC(=N)N)NC(=O)[C@H](Cc2ccccc2)NC(=O)[C@H]([C@@H](C)O)NC(=O)[C@@H](NC(=O)[C@H](CCCNC(=N)N)NC(=O)CN)CSSC[C@@H](C(=O)N[C@@H](Cc2ccc(O)cc2)C(=O)N2CCC[C@H]2C(=O)N[C@@H](CC(=O)O)C(=O)O)NC(=O)[C@H](CC(C)C)NC(=O)[C@H](CCC(N)=O)NC1=O [SFITGv6, NH2-G-R-C1-T-F-R-G-D-L-M-Q-L-C1-Y-P-D-COOH] (H-GRCTFRGDLMQLCYPD-OH; disulfide 3-13)
binding after substitution of lysine (K) to leucine (L) in FRGDKMQL ([1]; HNO97 and UM-UC-5 cells, ^125I-labeled, 60 min, versus SFPF-10): substantially increased the binding | tissue uptake ([2]; in vivo, activity in the blood): < 1 %ID/g | tissue uptake [2, 3]: ~42 %ID/g | tissue uptake at 0.5 h [2]: > 6 %ID/g | tissue uptake at 6 h [2]: 2.4 %ID/g

CSCC[C@@H]1NC(=O)[C@H](CC(C)C)NC(=O)[C@H](CC(=O)O)NC(=O)CNC(=O)[C@H](CCCNC(=N)N)NC(=O)[C@H](Cc2ccccc2)NC(=O)[C@H]([C@@H](C)O)NC(=O)[C@@H](NC(=O)[C@H](CCCNC(=N)N)NC(=O)CNC(=O)CN2CCN(CC(=O)O)CCN(CC(=O)O)CCN(CC(=O)O)CC2)CSSC[C@@H](C(=O)N[C@@H](Cc2ccc(O)cc2)C(=O)N2CCC[C@H]2C(=O)N[C@@H](CC(=O)O)C(=O)O)NC(=O)[C@H](CC(C)C)NC(=O)[C@H](CCC(N)=O)NC1=O [^177Lu-DOTA-SFITGv6, metal not drawn] ({DOTA}-GRCTFRGDLMQLCYPD-OH; disulfide 3-13)
tissue to tissue ratio at 0.5 h ([2]; in vivo, Tumor-to-Blood ratio): 6.89 ± 1 | tissue to tissue ratio at 1 h ([2]; in vivo, Tumor-to-Blood ratio): 12.9 ± 0.83 | tissue to tissue ratio at 2 h ([2]; in vivo, Tumor-to-Blood ratio): 59.5 ± 1.04 | tissue to tissue ratio at 4 h ([2]; in vivo, Tumor-to-Blood ratio): 98.86 ± 0.35 | tissue to tissue ratio at 6 h ([2]; in vivo, Tumor-to-Blood ratio): 99.15 ± 0.51 | tissue to tissue ratio at 0.5 h ([2]; in vivo, Tumor-to-Brain ratio): 190.9 ± 1 | tissue to tissue ratio at 1 h ([2]; in vivo, Tumor-to-Brain ratio): 198.6 ± 0.82 | tissue to tissue ratio at 2 h ([2]; in vivo, Tumor-to-Brain ratio): 250.3 ± 1.04 | tissue to tissue ratio at 4 h ([2]; in vivo, Tumor-to-Brain ratio): 372.6 ± 0.35 | tissue to tissue ratio at 6 h ([2]; in vivo, Tumor-to-Brain ratio): 424.9 ± 0.51 | tissue to tissue ratio at 0.5 h ([2]; in vivo, Tumor-to-Heart ratio): 15.1 ± 1 | tissue to tissue ratio at 1 h ([2]; in vivo, Tumor-to-Heart ratio): 21.9 ± 0.82 | tissue to tissue ratio at 2 h ([2]; in vivo, Tumor-to-Heart ratio): 48.8 ± 1.04 | tissue to tissue ratio at 4 h ([2]; in vivo, Tumor-to-Heart ratio): 67.5 ± 0.36 | tissue to tissue ratio at 6 h ([2]; in vivo, Tumor-to-Heart ratio): 78.99 ± 0.51 | tissue to tissue ratio at 0.5 h [2, 4]: 4.59 ± 1 | tissue to tissue ratio at 1 h [2, 4]: 3.42 ± 0.83 | tissue to tissue ratio at 2 h [2, 4]: 9.44 ± 1.05 | tissue to tissue ratio at 4 h [2, 4]: 10.7 ± 0.36 | tissue to tissue ratio at 6 h [2, 4]: 7.82 ± 0.51 | tissue to tissue ratio at 0.5 h ([2]; in vivo, Tumor-to-Kidney ratio): 0.15 ± 3.73 | tissue to tissue ratio at 1 h ([2]; in vivo, Tumor-to-Kidney ratio): 0.12 ± 2.21 | tissue to tissue ratio at 2 h ([2]; in vivo, Tumor-to-Kidney ratio): 0.1 ± 3.11 | tissue to tissue ratio at 4 h ([2]; in vivo, Tumor-to-Kidney ratio): 0.07 ± 2.69 | tissue to tissue ratio at 6 h ([2]; in vivo, Tumor-to-Kidney ratio): 0.06 ± 2.58 | tissue to tissue ratio at 0.5 h ([2]; in vivo, Tumor-to-Liver ratio): 20.8 ± 1 | tissue to tissue ratio at 1 h ([2]; in vivo, Tumor-to-Liver ratio): 21.5 ± 0.82 | tissue to tissue ratio at 2 h ([2]; in vivo, Tumor-to-Liver ratio): 25.8 ± 1.04 | tissue to tissue ratio at 4 h ([2]; in vivo, Tumor-to-Liver ratio): 32.2 ± 0.36 | tissue to tissue ratio at 6 h ([2]; in vivo, Tumor-to-Liver ratio): 17.6 ± 0.51 | tissue to tissue ratio at 0.5 h ([2]; in vivo, Tumor-to-Lung ratio): 2.29 ± 1.14 | tissue to tissue ratio at 1 h ([2]; in vivo, Tumor-to-Lung ratio): 3.81 ± 0.82 | tissue to tissue ratio at 2 h ([2]; in vivo, Tumor-to-Lung ratio): 9.13 ± 1.05 | tissue to tissue ratio at 4 h ([2]; in vivo, Tumor-to-Lung ratio): 10.3 ± 0.36 | tissue to tissue ratio at 6 h ([2]; in vivo, Tumor-to-Lung ratio): 9.73 ± 0.51 | tissue to tissue ratio at 0.5 h ([2]; in vivo, Tumor-to-Muscle ratio): 13.9 ± 1 | tissue to tissue ratio at 1 h ([2]; in vivo, Tumor-to-Muscle ratio): 16.1 ± 0.83 | tissue to tissue ratio at 2 h ([2]; in vivo, Tumor-to-Muscle ratio): 22.7 ± 1.04 | tissue to tissue ratio at 4 h ([2]; in vivo, Tumor-to-Muscle ratio): 32.3 ± 0.36 | tissue to tissue ratio at 6 h ([2]; in vivo, Tumor-to-Muscle ratio): 21.9 ± 0.51 | tissue to tissue ratio at 0.5 h ([2]; in vivo, Tumor-to-Spleen ratio): 21.1 ± 1 | tissue to tissue ratio at 1 h ([2]; in vivo, Tumor-to-Spleen ratio): 27.4 ± 0.82 | tissue to tissue ratio at 2 h ([2]; in vivo, Tumor-to-Spleen ratio): 38.4 ± 1.04 | tissue to tissue ratio at 4 h ([2]; in vivo, Tumor-to-Spleen ratio): 51.78 ± 0.36 | tissue to tissue ratio at 6 h ([2]; in vivo, Tumor-to-Spleen ratio): 35.4 ± 0.51 | tissue uptake [2, 3]: ~42 %ID/g | tissue uptake at 0.5 h [2]: 6.22 ± 1 %ID/g | tissue uptake at 6 h [2]: 2.43 ± 0.51 %ID/g

CC(C)C[C@@H]1NC(=O)[C@H](CC(=O)O)NC(=O)CNC(=O)[C@H](CCCNC(=N)N)NC(=O)CNC(=O)[C@H]([C@@H](C)O)NC(=O)[C@@H](NC(=O)[C@H](CCCNC(=N)N)NC(=O)CNC(=O)CN2CCN(CC(=O)O)CCN(CC(=O)O)CCN(CC(=O)O)CC2)CSSC[C@@H](C(=O)N[C@@H](Cc2ccc(O)cc2)C(=O)N2CCC[C@H]2C(=O)N[C@@H](CC(=O)O)C(N)=O)NC(=O)[C@H](CC(C)C)NC(=O)[C@H](CCCNC(=N)N)NC(=O)CNC1=O [^177Lu-DOTA-SFLAP3, metal not drawn] ({DOTA}-GRCTGRGDLGRLCYPD-NH2; disulfide 3-13; N-terminus and C-terminus assumed)
binding/internalization late in efflux experiment ([1]; after 240 min (FIG. 17C)): moderate renewed increase of binding/internalization | tissue uptake at 1 h ([2]; in vivo): 9.1 ± 1.2 %ID/g | tissue uptake at 6 h ([2]; in vivo): 5.8 ± 1.44 %ID/g
